Experimental data: publication PMC4643364 (Cancer cell, 2015)

Molecular target: T1, EphB4 labelled with NT-647 dye (UniProt P54760 16-539, NT-647 dye through primary amide coupling)
T1 sequence (looked up): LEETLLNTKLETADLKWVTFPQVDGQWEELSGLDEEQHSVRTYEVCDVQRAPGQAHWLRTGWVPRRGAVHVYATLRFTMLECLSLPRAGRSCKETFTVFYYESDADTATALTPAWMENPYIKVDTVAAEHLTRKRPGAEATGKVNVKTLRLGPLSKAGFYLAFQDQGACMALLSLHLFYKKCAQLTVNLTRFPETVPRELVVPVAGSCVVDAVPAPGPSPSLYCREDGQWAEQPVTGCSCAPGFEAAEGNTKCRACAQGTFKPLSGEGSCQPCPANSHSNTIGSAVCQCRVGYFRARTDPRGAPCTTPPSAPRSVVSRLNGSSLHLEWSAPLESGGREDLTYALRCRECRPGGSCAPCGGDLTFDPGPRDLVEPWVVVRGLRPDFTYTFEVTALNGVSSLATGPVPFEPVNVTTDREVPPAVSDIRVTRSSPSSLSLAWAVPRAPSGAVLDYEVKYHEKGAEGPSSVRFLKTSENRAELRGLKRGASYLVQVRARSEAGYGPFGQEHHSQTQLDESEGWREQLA
Test: MST

Kd: 140 nM
B1: EphrinB2/Fc, purified recombinant protein (Fc fusion, UniProt P52799 28-229, looked up)
chain: IVLEPIYWNSSNSKFLPGQGLVLYPQIGDKLDIICPKVDSKTVGQYEYYKVYMVDKDQADRCTIKKENTPLLNCAKPDQDIKFTIKFQEFSPNLWGLEFQKNKDYYIISTSNGSLEGLDNQEGGVCQTRAMKILMKVGQDASSAGSTRNKDPTRRPELEAGTNGRSSTTSPFVKPNPGSSTDGNSAGHSGNNILGSEVALFA
